Laboratory results as given in the supplement of paper PMC9170038.

Legend:
MS2 coat protein [1] = assay: apparent KD of MS2 coat protein, switch OFF state (with FMN for OFF switches, without FMN for ON switches); designed switch direction (-1 OFF switch, 1 ON switch): 1; higher = weaker reporter binding; settings: FMN input: 0 or 200 uM; Eterna round: R93 (includes R88 designs)
Summary of the method: (§1)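 Designed RNA switches were transcribed on-chip from Illumina sequencing clusters. They were then titrated with SNAP-549-labelled MS2 coat protein (twofold steps, 0.7 or 1.5 nM to 3 µM; 0.8–1.5 h to 10–20 min per step) in 100 mM Tris-HCl pH 7.5, 80 mM KCl, 4 mM MgCl2, without or with constant ligand. Apparent KD is the per-design median of normalised cluster binding-curve fits.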

MS2 coat protein [2] = assay: apparent KD of MS2 coat protein, switch ON state; designed switch direction (-1 OFF switch, 1 ON switch): 1; higher = weaker reporter binding; settings: FMN input: 0 or 200 uM; Eterna round: R93 (includes R88 designs)
Summary of the method: as §1

Sequence	apparent KD of MS2 coat protein (MS2 coat protein [1])	apparent KD of MS2 coat protein (MS2 coat protein [2])
AAAAAAAAGGGUGAGGAUAUCGAAAAAAAAACAUGAGGAUCACCCAUGUGAAAAAAAAAAAAAUGCGAGAAGGCACUAAAAAAAAA [Same State 2.3]	0.104 µM	0.0232 µM
AAAAAACAUGAGGAUCACCCAUGUAAAAAAAACACAGGAUAUCCCUUUUUUAAAUGAAAAGGAGAAGGGUGAAAAA [Nob's Hobby 9 - Jieux - Same State 1]	0.024 µM	0.0226 µM
AAAAAACAUGAGGAUCACCCAUGUAAAAAUAUGGGAGGAUAUGGAAACACGAAAGUGAAACCAGAAGGCUCAAAAG [77%, Mat - Mod of Eli, 17]	0.0784 µM	0.0212 µM
AAAAAACAUGAGGAUCACCCAUGUAGAAACAUGGGAGGAUAUACAAAGACGAAAGUCAAAGUAGAAGGCCUAAAAA [Mat - Same State 1 - Mod - D157]	0.0335 µM	0.0777 µM
AAAACACAUGAGGAUCACCCAUGUAAAAACAUGAGAGGAUAUGCAUAGAAAAAAAACUAUGCAGAAGGCUCAUGUG [SS1 - 5]	0.0291 µM	0.02 µM
AAAACACAUGAGGAUCACCCAUGUGAAAACAUGGGAGGAUAUGCAUGGAAAACAUGCUAUGCAGAAGGCUCAUGUG [SS1 - 7]	0.0626 µM	0.0838 µM
AAAACACAUGAGGAUCACCCAUGUGCAAAAUUCGCAGGAUAUUCCUCAAUUAAAUGAGAGGAAGAAGGGUGAUAAA [Nob's Hobby 33 - Jieux - Same State 1]	0.0534 µM	0.0189 µM
AAAAGACAUGAGGAUCACCCAUGUAAAAACGUGGGAGGAUAUGCAUGGAAAACAUGCUGUGCAGAAGGCCCGUGUC [SS1 - 22]	0.2 µM	0.263 µM
AAAAGACAUGAGGAUCACCCAUGUAAAAACUUGAGAGGAUAUGCUUGGAAAACAUGCUAUGCAGAAGGCUCUAGUC [SS1 - 15]	0.0263 µM	0.018 µM
AAAAUAUAAACGGAGGAUAUCCAAAGAACCACAUGAGGAUCACCCAUGUAAAGAAAGAAUAAGUGGGAGAAGGCCGAAAUAAUAA [Designing denovo 27]	0.0569 µM	0.0189 µM
AAACAGAUAGGACAGGAUAUGUCGUGAUAAACAUGAGGAUCACCCAUGUGAGACAUCACGUAAUCGCAGAAGGGUCCCGUCUUAC [Usonsoave]	0.0127 µM	0.0111 µM
AAAGGGAUUACGGAGGAUAUGGAAAAAAAAACAUGAGGAUCACCCAUGUCAAAAAAAAAAAAGGACCAGAAGGCCGUAAUCUCAAA [hsl_samestate2]	0.0226 µM	0.0199 µM
AAAGUGCCGACGAAGGAUAUAGCGGGUGAGACAUGAGGAUCACCCAUGUAUGCAGAACUCAUCCUCUAGAAGGUUGAGACGGCUA [Bionlateat]	0.138 µM	0.488 µM
AAAUAAAAAAAAAAGGAUAUUCAUGUGAAAACAUGAGGAUCACCCAUGUAAAAAAAUAAAAAUAAAAAGAAGGAAAAAUAAAAAA [SS2: 86 No MS2]	0.841 µM	0.571 µM
AAAUAAAGGACUGAGGAUAUACCACAUGAAACAUGAGGAUCACCCAUGUAAUAAUACAAAGGGUGGUAGAAGGUAGUCCACAAACA [so let's mod Hyphema]	0.0268 µM	0.014 µM
AAAUGACAUGAGGAUCACCCAUGUCCACCAAACGGAGGAUAUUGGGCGGAAAAACGUUGUUAAGAAGGCCGAAAAA [SS1-1.0]	0.0737 µM	0.143 µM

Sequence	apparent KD of MS2 coat protein (MS2 coat protein [1])	apparent KD of MS2 coat protein (MS2 coat protein [2])
AACAAUCUAUCUGAGGAUAUAUGUCGAAAGACAUGAGGAUCACCCAUGUGAAAACAUGAAAAAUAAUAGAAGGCAGAUAGAUUGA [SS2: 1141]	0.413 µM	0.0805 µM
AACAAUCUAUCUGAGGAUAUAUGUCGAAAGACAUGAGGAUCACCCAUGUGAAAACAUGAAAAGACAUAGAAGGCAGAUAGAUUGA [SS2: 1131]	0.0473 µM	0.0274 µM
AACAAUCUAUCUGAGGAUAUCAUGUAAAAAACAUGAGGAUCACCCAUGUCUAGGAAAACUAGAUAUGAGAAGGCAGAUAGAUUGA [SS1 - 596]	0.0861 µM	0.11 µM
AACAAUCUAUCUGAGGAUAUCAUGUAAAAAACAUGAGGAUCACCCAUGUGCAGGAAAACUGCAUAUGAGAAGGCAGAUAGAUUGA [SS2 :P - 600]	0.192 µM	0.0981 µM
AACAAUCUAUCUGAGGAUAUCAUGUCAAAGACAUGAGGAUCACCCAUGUCCAGGAAAACUGGAUAUGAGAAGGCAGAUAGAUUGA [SS2: 1105]	3.31 µM	0.179 µM
AACAAUCUAUCUGAGGAUAUCAUGUCAAAGACAUGAGGAUCACCCAUGUCGCAGGAAACUGCUCAUGAGAAGGCAGAUAGAUUGA [SS2: 1128]	0.0172 µM	0.0112 µM
AACAUACAUGAGGAUCACCCAUGUUCCGGCAGGUCAGGAUAUUCAUCGAAAGUGUUAUAAGAAGAAGGGACAUAAA [JR_SS001_Sub011]	0.0489 µM	0.034 µM
AAGAAACAUGAGGAUCACCCAUGUAAAUUUAAGAGAGGAUAUCGUACAUGGAAGAUUUAACGAGAAGGCUCUAGAA [Pariah 2 (MS2 Riboswitches - Same State 1)]	0.0369 µM	–
AAGAAACAUGAGGAUCACCCAUGUAAGAUAAACACAGGAUAUGCGAAAGAAAUAAAGAAAGCAGAAGGGUGAAGAA [Mat - Same State 1 - Tesla mod - D147]	0.0268 µM	0.0143 µM
AAGAAACAUGAGGAUCACCCAUGUAGAAACAUGGGAGGAUAUACAAAGACGAAAGUCAAAGUAGAAGGCCUAAGAA [Mat - Same State 1 - Mod - D164]	0.0635 µM	0.102 µM
AAGAAACAUGAGGAUCACCCAUGUGAGAAUAACACAGGAUAUGCGAAAAGAAACAAAGAAGCAGAAGGGUGAAGAA [Mat - Same State 1 - Tesla mod - 54]	0.0403 µM	0.02 µM
AAGAAAGUUUACGAGGAUAUGUUCCGCAGAACAUGAGGAUCACCCAUGUGAACAAGAAAGGCGACGCAGAAGGCGUGAGCUAUGA [Anesdien]	0.106 µM	0.0327 µM
AAUAAACAUGAGGAUCACCCAUGUAAUAAUAUGGGAGGAUAUACUAAAAUAAAAUAAAAUGUAGAAGGCCUAAUAA [LROPPY Same State 1 - v05_deltaG=1.05 break up the As]	0.159 µM	0.0355 µM
AAUACAAAUAGUCAGGAUAUCAAAAAUAAGACAUGAGGAUCACCCAUGUAAUAAGUAAAAGUAAAUGAGAAGGGACAGGGUGAAA [JR_SS002_Sub401]	0.0592 µM	0.53 µM
AAUACACAUGGUCAGGAUAUCGCAGCUAGGACAUGAGGAUCACCCAUGUCGUAAGUAAAAGUAAAUGAGAAGGGACAGGGUGACC [JR_SS002_Sub406]	0.0282 µM	0.133 µM
AAUAUACAUGAGGAUCACCCAUGUUAGGUGGGACUAGGAUAUCAAAAUAAAUAAAGAACAUGAGAAGGAGUAUCAA [JR_SS001_Sub401]	0.152 µM	0.0945 µM
